Source: PMC2133087 (The Journal of Cell Biology, 1998)

Target: actin filament (F-actin) polymerized from G-actin purified from rabbit skeletal muscle (rabbit, UniProt P68135 1-377)
Assay: co-sedimentation

stoichiometry N | Binder
~10 actin molecules per His6-s-nexilin molecule | full-length His6-s-nexilin (natural protein) MNDVSQKAEIKDMLASDEEEEPSKVEKAYVPKLTGTVKGKFDEMEKHRQEEQRKRTEEERKRRIEQDLLEKRKMQRELAKRAEQIEDINNTGTESASEEGDDSLLITVVPAKSYRAAANRKDPEDLDREHRNGRVSQEEEKTRHEEECRALKEAKCLSLVMDDETEAKKESRFPGKLKSTFEELERQRQENRKKQAEEEARRRLEEERRAFEEARRNMVNEEDESQDTETVFKEYRPGKLRLSFEEIERQRREEEKRKAEEEARRRMEEEKKAFAEARRSMVLDDDSPEIYKAVSQESLTPGKLEINFEQLLRQKMEEERRRTEEERRQKLEMEKQEFEQLRQEMGKEEEENESFGLSREYEELIKLKRSGSIQAKNLKSKFEKIGQLSEKEVQKKIEEERAKRRAIDLEIKEREAENFHEDDDVDVKPAKKSESPFTHKVNMKARFEQMAKARQEEEQRRIEEQKLLRMQFEQKEIDAALQKKREDDEEEEGSIVNGSTTEDEEQTRSGAPWFKKPLRNTSVVDSEPVRFTVKVTGEPKPEVTWWFEGELLQDGEDYQYIERGETYCLYLPETFPEDGGEYMCKAVNSKGSAASTCILTIEMDDY
~9 actin molecules per His6-b-nexilin molecule | full-length His6-b-nexilin (natural protein) MNDVSQKAEILLSSSKPVPKSYVPKLGKGDVKDKFEAMQRAREERNQRRSRDEKQRRKEQYIREREWNRRKQEIKDMLASDEEEEPSKVEKAYVPKLTGTVKGKFDEMEKHRQEEQRKRTEEERKRRIEQDLLEKRKMQRELAKRAEQEGDDSLLITVVPAKSYRAAANRKDPEDLDREHRNGRVSQEEEKTRHEEECRALKEAKCLSLVMDDETEAKKESRFPGKLKSTFEELERQRQENRKKQAEEEARRRLEEERRAFEEARRNMVNEEDESQDTETVFKEYRPGKLRLSFEEIERQRREEEKRKAEEEARRRMEEEKKAFAEARRSMVLDDDSPEIYKAVSQESLTPGKLEINFEQLLRQKMEEERRRTEEERRQKLEMEKQEFEQLRQEMGKEEEENESFGLSREYEELIKLKRSGSIQAKNLKSKFEKIGQLSEKEVQKKIEEERAKRRAIDLEIKEREAENFHEDDDVDVKPAKKSESPFTHKVNMKARFEQMAKARQEEEQRRIEEQKLLRMQFEQKEIDAALQKKREDDEEEEGSIVNGSTTEDEEQTRSGAPWFKKPLRNTSVVDSEPVRFTVKVTGEPKPEVTWWFEGELLQDGEDYQYIERGETYCLYLPETFPEDGGEYMCKAVNSKGSAASTCILTIEMDDY
